Residue numbers refer to the chain shown, from its start. Numbers in names are those of the source. Each block holds one binder with its values, some of them ahead of it.
How the values were obtained:
[1] = target: scFvWFL, single chain variant (scFv) of MEDI1912 (human); test: cross-linking; scFv 15 µM in 100 mM sodium phosphate pH 7.4, d0/d4-BS3 (50:50) at 50x, 100x, 200x and 500x molar excess, 30 min at 25 °C; SDS-PAGE densitometry and LC-MS/MS of the dimer bands
[2] = target: scFvSTT, scFv of MEDI1912 with W35S, F36T and L64T in VH (human); test: as above

percent incorporated into higher-order oligomers [1]: 45%
B1: scFvWFL, single chain variant (scFv) of MEDI1912 (scFv, V domains shown)
VH: QVQLVQSGAEVKKPGSSVKVSCKASGGTFWFGAFTWVRQAPGQGLEWMGGIIPIFGLTNLAQNFQGRVTITADESTSTVYMELSSLRSEDTAVYYCARSSRIYDLNPSLTAYYDMDVWGQGTMVTVSS
VL: QSVLTQPPSVSAAPGQKVTISCSGSSSDIGNNYVSWYQQLPGTAPKLLIYDNNKRPSGIPDRFSGSKSGTSATLGITGLQTGDEADYYCGTWDSSLSAWVFGGGTKLTVL

percent remaining monomeric [2]: 99%
B2: scFvSTT, scFv of MEDI1912 with W35S, F36T and L64T in VH (scFv, V domains shown)
VH: B1 VH with W30S, F31T, L57T
VL: B1 VL
